Reference: patent US20050222029A1 (MYRIAD GENETICS, published 2005)

T1: v-akt murine thymoma viral oncogene homolog 2 (AKT2) 1-152 (human, UniProt P31751 1-152)
T1 construct: bait (Gal4 DBD fusion)
T1 sequence (looked up): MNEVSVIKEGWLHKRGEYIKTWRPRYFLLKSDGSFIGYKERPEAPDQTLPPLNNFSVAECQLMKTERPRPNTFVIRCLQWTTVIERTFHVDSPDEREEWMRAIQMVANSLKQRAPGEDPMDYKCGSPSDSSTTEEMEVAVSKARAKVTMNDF

T2: Hypothetical protein FLJ10540 2-132 (human, UniProt Q53EZ4 2-132)
T2 construct: prey (Gal4 AD-HA fusion)
T2 sequence (looked up): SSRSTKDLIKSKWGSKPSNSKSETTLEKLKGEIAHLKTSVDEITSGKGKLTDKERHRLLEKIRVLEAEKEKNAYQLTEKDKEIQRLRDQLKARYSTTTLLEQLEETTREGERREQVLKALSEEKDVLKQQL

T3: Hypothetical protein FLJ10540 1-140 (human, UniProt Q53EZ4 1-140)
T3 construct: range 1-140; prey (Gal4 AD-HA fusion)
T3 sequence (looked up): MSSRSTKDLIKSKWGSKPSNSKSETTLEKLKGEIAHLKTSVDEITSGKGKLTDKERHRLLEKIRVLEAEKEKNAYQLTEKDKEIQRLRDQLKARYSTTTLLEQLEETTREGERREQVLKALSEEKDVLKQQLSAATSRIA

T4: Tumor Suppressor (TSG101) 147-391 (human, UniProt Q99816 147-390)
T4 construct: bait (Gal4 DBD fusion)
T4 sequence (looked up): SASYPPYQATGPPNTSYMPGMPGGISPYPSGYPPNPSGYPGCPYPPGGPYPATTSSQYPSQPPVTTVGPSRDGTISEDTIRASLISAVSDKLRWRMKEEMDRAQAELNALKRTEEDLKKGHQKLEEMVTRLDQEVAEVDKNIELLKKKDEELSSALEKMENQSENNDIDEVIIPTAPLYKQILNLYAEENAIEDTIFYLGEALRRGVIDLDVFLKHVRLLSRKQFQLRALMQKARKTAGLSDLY

T5: Tumor Suppressor (TSG101) 1-274 (human, UniProt Q99816 1-274)
T5 construct: range 1-274; bait (Gal4 DBD fusion)
T5 sequence (looked up): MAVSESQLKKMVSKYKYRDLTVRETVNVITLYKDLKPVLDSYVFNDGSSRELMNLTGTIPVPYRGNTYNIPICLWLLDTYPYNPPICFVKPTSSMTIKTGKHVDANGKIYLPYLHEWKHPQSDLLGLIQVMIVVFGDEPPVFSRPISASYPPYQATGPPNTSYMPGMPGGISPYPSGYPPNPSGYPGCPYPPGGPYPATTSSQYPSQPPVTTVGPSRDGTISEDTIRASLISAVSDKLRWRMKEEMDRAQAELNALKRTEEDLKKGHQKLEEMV

T6: Catenin, alpha 2 (A2-CAT) 1-166 (human, UniProt P26232 1-166)
T6 construct: prey (Gal4 AD-HA fusion)
T6 sequence (looked up): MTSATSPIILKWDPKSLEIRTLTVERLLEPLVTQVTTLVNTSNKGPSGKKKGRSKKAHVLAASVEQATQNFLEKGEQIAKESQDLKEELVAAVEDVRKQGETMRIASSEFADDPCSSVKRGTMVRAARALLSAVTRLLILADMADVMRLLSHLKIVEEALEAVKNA

T7: Catenin, alpha 2 (A2-CAT) 55-487 (human, UniProt P26232 55-487)
T7 construct: prey (Gal4 AD-HA fusion)
T7 sequence (looked up): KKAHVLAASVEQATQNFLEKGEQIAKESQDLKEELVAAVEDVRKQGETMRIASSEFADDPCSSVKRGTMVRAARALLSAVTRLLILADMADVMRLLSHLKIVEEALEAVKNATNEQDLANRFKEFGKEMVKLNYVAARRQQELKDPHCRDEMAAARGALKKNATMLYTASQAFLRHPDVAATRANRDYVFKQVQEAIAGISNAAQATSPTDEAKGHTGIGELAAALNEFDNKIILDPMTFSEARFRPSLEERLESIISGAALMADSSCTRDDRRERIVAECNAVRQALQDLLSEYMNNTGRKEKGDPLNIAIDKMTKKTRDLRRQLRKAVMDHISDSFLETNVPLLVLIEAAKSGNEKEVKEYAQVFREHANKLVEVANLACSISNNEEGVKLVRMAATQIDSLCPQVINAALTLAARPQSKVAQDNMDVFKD

T8: upstream of N-ras, alt. transcript (798) (UNR) 110-528 (human, UniProt O75534 110-528)
T8 construct: prey (Gal4 AD-HA fusion)
T8 sequence (looked up): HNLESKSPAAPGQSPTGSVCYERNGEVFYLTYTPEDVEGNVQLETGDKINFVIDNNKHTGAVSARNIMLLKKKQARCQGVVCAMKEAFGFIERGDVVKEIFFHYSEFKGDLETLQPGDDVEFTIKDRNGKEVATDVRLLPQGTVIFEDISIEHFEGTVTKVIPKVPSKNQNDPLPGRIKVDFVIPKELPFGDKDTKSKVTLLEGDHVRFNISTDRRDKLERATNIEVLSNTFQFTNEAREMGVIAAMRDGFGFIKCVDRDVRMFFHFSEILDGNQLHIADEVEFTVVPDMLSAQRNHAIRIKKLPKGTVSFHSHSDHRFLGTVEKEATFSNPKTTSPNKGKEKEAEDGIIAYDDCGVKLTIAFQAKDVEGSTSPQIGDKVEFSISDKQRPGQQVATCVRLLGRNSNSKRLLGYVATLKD

B1: tetratricopeptide repeat domain 3 (TPRD) 1058-1189 (other, human, UniProt P53804 1058-1189, looked up)
chain: NRNSDSAGPFAVPDHLRQDVEEFEALYDQHSNEYVVRNKKLWDMNPKQKCSTLYDYFSQFLEEHGPLDMSNKMFSAEYEFFPEETRQILEKAGGLKPFLLGCPRFVVIDNCIALKKVASRLKKKRKKKNIKT
notes: prey (Gal4 AD-HA fusion)
B2: Tumor Suppressor (TSG101) 140-270 (other, human, UniProt Q99816 140-270, looked up)
chain: PVFSRPISASYPPYQATGPPNTSYMPGMPGGISPYPSGYPPNPSGYPGCPYPPGGPYPATTSSQYPSQPPVTTVGPSRDGTISEDTIRASLISAVSDKLRWRMKEEMDRAQAELNALKRTEEDLKKGHQKL
notes: range 140-270; bait (Gal4 DBD fusion)
B3: VPS28 protein 10-221 (other, human, UniProt Q9UK41 10-221, looked up)
chain: GIGAPGNKPELYEEVKLYKNAREREKYDNMAELFAVVKTMQALEKAYIKDCVSPSEYTAACSRLLVQYKAAFRQVQGSEISSIDEFCRKFRLDCPLAMERIKEDRPITIKDDKGNLNRCIADVVSLFITVMDKLRLEIRAMDEIQPDLRELMETMHRMSHLPPDFEGRQTVSQWLQTLSGMSASDELDDSQVRQMLFDLESAYNAFNRFLHA
notes: prey (Gal4 AD-HA fusion); also called vacuolar protein sorting 28
B4: VPS28 protein 27-221 (other, human, UniProt Q9UK41 27-221, looked up)
chain: YKNAREREKYDNMAELFAVVKTMQALEKAYIKDCVSPSEYTAACSRLLVQYKAAFRQVQGSEISSIDEFCRKFRLDCPLAMERIKEDRPITIKDDKGNLNRCIADVVSLFITVMDKLRLEIRAMDEIQPDLRELMETMHRMSHLPPDFEGRQTVSQWLQTLSGMSASDELDDSQVRQMLFDLESAYNAFNRFLHA
notes: as for B3
B5: Actinin (ACTN1) 719-892 (other, human, UniProt P12814 719-892, looked up)
chain: QLLTTIARTINEVENQILTRDAKGISQEQMNEFRASFNHFDRDHSGTLGPEEFKACLISLGYDIGNDPQGEAEFARIMSIVDPNRLGVVTFQAFIDFMSRETADTDTADQVMASFKILAGDKNYITMDELRRELPPDQAEYCIARMAPYTGPDSVPGALDYMSFSTALYGESDL
notes: prey (Gal4 AD-HA fusion)
B6: Survivin (BIRC5) 89-143 (other, human, UniProt O15392 89-142, looked up)
chain: VKKQFEELTLGEFLKLDRERAKNKIAKETNNKKKEFEETAKKVRRAIEQLAAMD
notes: range 89-143; bait (Gal4 DBD fusion); also called API4
B7: v-akt murine thymoma viral oncogene homolog 2 (AKT2) 1-108 (enzyme, human, UniProt P31751 1-108, looked up)
chain: MNEVSVIKEGWLHKRGEYIKTWRPRYFLLKSDGSFIGYKERPEAPDQTLPPLNNFSVAECQLMKTERPRPNTFVIRCLQWTTVIERTFHVDSPDEREEWMRAIQMVAN
notes: bait (Gal4 DBD fusion)
B8: Survivin (BIRC5) 3-99 (other, human, UniProt O15392 3-99, looked up)
chain: APTLPPAWQPFLKDHRISTFKNWPFLEGCACTPERMAEAGFIHCPTENEPDLAQCFFCFKELEGWEPDDDPIEEHKKHSSGCAFLSVKKQFEELTLG
notes: range 3-99; bait (Gal4 DBD fusion); also called API4
B9: Survivin (BIRC5) 52-143 (other, human, UniProt O15392 52-142, looked up)
chain: PDLAQCFFCFKELEGWEPDDDPIEEHKKHSSGCAFLSVKKQFEELTLGEFLKLDRERAKNKIAKETNNKKKEFEETAKKVRRAIEQLAAMD
notes: range 52-143; bait (Gal4 DBD fusion); also called API4
B10: syntaxin 2 (STX2) 156-261 (other, human, UniProt P32856 156-261, looked up)
chain: GRTTTDDELEEMLESGKPSIFTSDIISDSQITRQALNEIESRHKDIMKLETSIRELHEMFMDMAMFVETQGEMINNIERNVMNATDYVEHAKEETKKAIKYQSKAR
B11: ribosomal protein S6 kinase, 90 kDa, polypeptide 1 (p90RSK) 418-467 (enzyme, human, UniProt Q15418 418-467, looked up)
chain: YVVKETIGVGSYSECKRCVHKATNMEYAVKVIDKSKRDPSEEIEILLRYG
notes: range 418-467; bait (Gal4 DBD fusion); also called HU1

Assays:
Test in all cases: yeast two-hybrid
[1] = target: T9, v-akt murine thymoma viral oncogene homolog 1 (AKT1) 1-150 (human, UniProt P31749 1-150)
T9 construct: range 1-150; bait (Gal4 DBD fusion)

[2] = target: T1, v-akt murine thymoma viral oncogene …
[3] = target: T2, Hypothetical protein FLJ10540 2-132
[4] = target: T3, Hypothetical protein FLJ10540 1-140
[5] = target: T4, Tumor Suppressor (TSG101) 147-391
[6] = target: T5, Tumor Suppressor (TSG101) 1-274
[7] = target: T10, Cytoplasmic dynein light chain 1 (HDLC1) 1-90 (human, UniProt P63167 1-89)
T10 construct: range 1-90; prey (Gal4 AD-HA fusion)

[8] = target: T11, intracellular chloride channel protein (CLIC1) 98-210 (human, UniProt O00299 98-210)
T11 construct: range 98-210; prey (Gal4 AD-HA fusion); also called NCC27

[9] = target: T12, intracellular chloride channel protein (CLIC1) 51-210 (human, UniProt O00299 51-210)
T12 construct: range 51-210; prey (Gal4 AD-HA fusion); also called NCC27

[10] = target: B1
[11] = target: T13, DNA helicase II, ATP-dependent, 70 kD subunit (KU70) 131-403 (table prints 1131-4404) (human, UniProt P12956 131-403)
T13 construct: prey (Gal4 AD-HA fusion)

[12] = target: T6, Catenin, alpha 2 (A2-CAT) 1-166
[13] = target: T7, Catenin, alpha 2 (A2-CAT) 55-487
[14] = target: T14, Apolipoprotein A-I (APOA1) 106-267 (human, UniProt P02647 106-267)
T14 construct: bait (Gal4 DBD fusion)

[15] = target: T8, upstream of N-ras, alt. transcript …

T14 sequence (P02647 106-267 limits assumed, form in doubt): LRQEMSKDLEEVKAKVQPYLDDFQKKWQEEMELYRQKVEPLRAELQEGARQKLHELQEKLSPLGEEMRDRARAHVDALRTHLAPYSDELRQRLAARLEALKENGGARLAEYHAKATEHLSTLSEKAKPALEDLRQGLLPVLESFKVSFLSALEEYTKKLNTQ
T13 sequence (P12956 131-403 limits assumed): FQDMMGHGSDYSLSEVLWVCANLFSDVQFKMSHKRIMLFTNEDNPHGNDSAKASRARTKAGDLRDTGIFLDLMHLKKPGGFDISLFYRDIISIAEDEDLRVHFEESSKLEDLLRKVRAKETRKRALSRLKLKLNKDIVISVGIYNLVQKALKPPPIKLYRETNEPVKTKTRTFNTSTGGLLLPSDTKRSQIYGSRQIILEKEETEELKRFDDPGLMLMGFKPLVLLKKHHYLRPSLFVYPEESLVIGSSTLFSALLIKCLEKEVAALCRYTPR
T10 sequence (P63167 whole entry, the tested form may be a part): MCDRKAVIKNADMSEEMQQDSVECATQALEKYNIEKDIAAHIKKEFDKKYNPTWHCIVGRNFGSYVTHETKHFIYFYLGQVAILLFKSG
T9 sequence (P31749 1-150 limits assumed): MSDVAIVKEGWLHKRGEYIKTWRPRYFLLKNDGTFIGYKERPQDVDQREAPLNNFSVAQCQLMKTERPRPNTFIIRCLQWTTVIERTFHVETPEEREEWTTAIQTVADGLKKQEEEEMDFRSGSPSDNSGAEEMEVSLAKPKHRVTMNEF

B1
binding result [1]: binds | binding result [2]: binds

B2
binding result [3]: binds | binding result [4]: binds

B3
binding result [5]: binds

B4
binding result [5]: binds

B5
binding result [6]: binds

B6
binding result [7]: binds

B7
binding result [8]: binds | binding result [9]: binds | binding result [10]: binds

B8
binding result [11]: binds

B9
binding result [12]: binds | binding result [13]: binds

B10
binding result [14]: binds

B11
binding result [15]: binds
